According to US6359194 (Takeda / Millennium, dated 2002):

Molecular target: the molecule itself
Test: co-immunoprecipitation from transfected 293 cells or BAECs
Experimental: The interaction of the rchd534 and fchd540 proteins, observed in yeast cells as described above, was tested in mammalian endothelial cell tissue culture. Either bovine aortic endothelial cells (BAECs) or 293 cells (human embryonic kidney cells, ATCC Accession No. CRL-1573) were transfected with constructs encoding both the rchd534 and fchd540 proteins, each fused to a different flag peptide allowing for specific immunoprecipitation. […] The co-immunoprecipitation of rchd534 and fchd540 further supports that these proteins interact in human cells that are physiologically relevant to cardiovascular disease.

B1: fchd540 protein fused to a flag peptide (transfected 293 cells or BAECs) (other, human, UniProt O15105 1-426, looked up)
chain: MFRTKRSALVRRLWRSRAPGGEDEEEGAGGGGGGGELRGEGATDSRAHGAGGGGPGRAGCCLGKAVRGAKGHHHPHPPAAGAGAAGGAEADLKALTHSVLKKLKERQLELLLQAVESRGGTRTACLLLPGRLDCRLGPGAPAGAQPAQPPSSYSLPLLLCKVFRWPDLRHSSEVKRLCCCESYGKINPELVCCNPHHLSRLCELESPPPPYSRYPMDFLKPTADCPDAVPSSAETGGTNYLAPGGLSDSQLLLEPGDRSHWCVVAYWEEKTRVGRLYCVQEPSLDIFYDLPQGNGFCLGQLNSDNKSQLVQKVRSKIGCGIQLTREVDGVWVYNRSSYPIFIKSATLDNPDSRTLLVHKVFPGFSIKAFDYEKAYSLQRPNDHEFMQQPWTGFTVQISFVKGWGQCYTRQFISSCPCWLEVIFNSR
notes: Co-immunoprecipitation construct; not shown: flag peptide (different from that on rchd534)
binding result: no binding
